Results as given in patent US20210122785A1 (Bicycle, published 2021).
Starred links: 1 amine or outer side, 2 acyl side, 3 side chain; linkers in the order of their positions; H or OH if unused. Positions of bridges follow the written chain, without caps; N, C: chain ends. Non-standard residues stand in square brackets, D forms with d. No end group written: not given here. TBMB = c1c(C[*:1])cc(C[*:3])cc1C[*:2]; Dap(Me) = CNC[C@H](N)C(=O)O

T1: IL-17A (UniProt Q16552 24-155)
T1 construct: also called Interleukin-17
T1 sequence (looked up): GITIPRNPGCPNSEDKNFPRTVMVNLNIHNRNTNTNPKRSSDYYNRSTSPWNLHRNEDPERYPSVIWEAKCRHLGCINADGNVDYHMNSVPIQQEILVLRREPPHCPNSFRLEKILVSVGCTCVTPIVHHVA

T2: hIL17-F (human, UniProt Q96PD4 31-163)
T2 construct: also called human IL-17F
T2 sequence (looked up): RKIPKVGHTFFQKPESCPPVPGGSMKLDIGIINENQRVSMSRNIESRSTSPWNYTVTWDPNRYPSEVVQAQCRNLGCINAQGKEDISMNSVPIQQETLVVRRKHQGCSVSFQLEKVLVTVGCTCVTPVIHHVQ

T3: hIL17-A (human, UniProt Q16552 24-155)
T3 construct: also called human IL-17A
T3 sequence (looked up): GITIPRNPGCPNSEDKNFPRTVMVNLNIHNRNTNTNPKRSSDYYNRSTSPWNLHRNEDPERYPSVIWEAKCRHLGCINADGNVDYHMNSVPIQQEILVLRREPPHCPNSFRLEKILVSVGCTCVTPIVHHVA


Key:
IL-17A [1] = molecular target: T1, IL-17A; assay: IL-17A binding assay, method analogous to WO 2011/141823; mean of n1 and n2
IL-17A [2] = molecular target: T1, IL-17A; assay: IL-17A binding assay, method analogous to WO 2011/141823; replicate n2
IL-17A [3] = molecular target: T1, IL-17A; assay: IL-17A binding assay, method analogous to WO 2011/141823; replicate n1
hIL17-F = molecular target: T2, hIL17-F; assay: IL-17 binding assay (Kd), as described in GB1720932.1
hIL17-A = molecular target: T3, hIL17-A; assay: as above

| Binder | Ki (IL-17A [1]) [nM] | Ki (IL-17A [2]) [nM] | Ki (IL-17A [3]) [nM] | Kd (hIL17-F) [nM] | Kd (hIL17-A) [nM] |
| --- | --- | --- | --- | --- | --- |
| Ac-A[Dap(Me)]PQDLEL[Dap(Me)]TFLFGDCA (linker 2-9-16 via TBMB, Bicyclic peptide on a TBMB scaffold; first and second cysteines of BCY00008655 replaced by Dap(Me); also called Ac-(28-06)(TBMB) Cys12Dap(Me)) [BCY00008651] | 264 | 231 | 298 |  |  |
| ACLWKDNCTHWSLCA (linker 2-8-14 via TBMB) [Reference Example A6, A-CLWKDNCTHWSLC-A] |  |  |  | 392 |  |
| Ac-A[Dap(Me)]PQDLELCTFLFGDCA (linker 2-9-16 via TBMB, Bicyclic peptide on a TBMB scaffold; first cysteine of BCY00008655 replaced by Dap(Me); also called Ac-(28-06)(TBMB) Cys1Dap(Me)) [BCY00008648] | 116 | 105 | 127 |  |  |
| ACGYDYYCALYDICA (linker 2-8-14 via TBMB) [Reference Example A5, A-…-A] |  |  |  | 198 |  |
| CPENELYCFLSSQQC (linker 1-8-15 via TBMB) [Reference Example A2, CPENELYCFLSSQQC] |  |  |  |  | 398 |

The next lines start with the values.

| Ki (IL-17A [1]) [nM] | Ki (IL-17A [2]) [nM] | Ki (IL-17A [3]) [nM] | Kd (hIL17-F) [nM] | Kd (hIL17-A) [nM] | Binder |
| --- | --- | --- | --- | --- | --- |
| 60.2 | 59.6 | 60.8 |  |  | Ac-ACPQDLEL[Dap(Me)]TFLFGDCA (linker 2-9-16 via TBMB, Bicyclic peptide on a TBMB scaffold; second cysteine of BCY00008655 replaced by Dap(Me); also called Ac-(28-06)(TBMB) Cys2Dap(Me)) [BCY00008649] |
| 93 | 107 | 78.8 |  |  | Ac-ACPQDLELCTFLFGDCA (linker 2-9-16 via TBMB, Bicyclic peptide on a TBMB scaffold; also called Ac-(28-06)(TBMB)) [BCY00008655] |
| 94.7 | 89.3 | 100 |  |  | Ac-A[Dap(Me)]PQDLEL[Dap(Me)]TFLFGD[Dap(Me)]A (linker 2-9-16 via TBMB, Bicyclic peptide on a TBMB scaffold; all three cysteines of BCY00008655 replaced by Dap(Me); also called Ac-(28-06)(TBMB) Cys123Dap(Me)) [BCY00008654] |
| 129 | 85.9 | 173 |  |  | Ac-A[Dap(Me)]PQDLELCTFLFGD[Dap(Me)]A (linker 2-9-16 via TBMB, Bicyclic peptide on a TBMB scaffold; first and third cysteines of BCY00008655 replaced by Dap(Me); also called Ac-(28-06)(TBMB) Cys13Dap(Me)) [BCY00008653] |
